# Assay results as given in paper PMC12474247.
# Values joined by “and” are separate entries in the source; they are usually repeats but may differ in a detail not shown here. Identical values can stand only once.
# Molecular target: small hepatitis delta antigen with C-terminal His6-tag (SHDAg-His6), native preparation (hepatitis D virus genotype 1)
# Experiment: SEC
substance,measurement,value
"small hepatitis delta antigen with C-terminal His6-tag (SHDAg-His6), native preparation (natural protein)",stoichiometry N,4 and 8
